Reference: paper PMC13129248

Molecular target: DENV C (dengue virus capsid protein) (Dengue virus 2, strain New Guinea, UniProt O92835 1-100)
Test: Trp fluorescence quenching and lifetime

Q: Does AAAGACCAACACCAAGAGGCACAGTAATGGACATT (ssDNA) [C] bind?
A: Result: binds
